{
  "source": "paper PMC10777313",
  "key": {"mCD32b (mouse)": {"target": "mCD32b (mouse) (UniProt P08101)", "sequence (P08101 30-330)": "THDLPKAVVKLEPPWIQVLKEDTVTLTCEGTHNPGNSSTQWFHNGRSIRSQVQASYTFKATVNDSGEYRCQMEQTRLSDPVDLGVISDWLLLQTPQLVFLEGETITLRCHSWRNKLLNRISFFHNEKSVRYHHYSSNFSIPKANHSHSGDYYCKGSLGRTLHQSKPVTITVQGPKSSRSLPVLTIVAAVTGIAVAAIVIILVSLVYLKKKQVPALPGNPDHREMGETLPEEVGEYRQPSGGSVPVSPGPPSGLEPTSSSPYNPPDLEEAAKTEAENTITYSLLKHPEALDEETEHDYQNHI", "assay": "BLI; Fortebio Octet, 30°C; FcγRs loaded on NTA sensors at 5 μg/mL (2.5 nm); antibodies in solution, six 2-fold dilutions; 1× PBS, 0.1% BSA, 0.02% Tween 20; steady-state equilibrium analysis"}, "mCD16-2 (mouse)": {"target": "mCD16-2 (mouse)", "assay": "BLI; Fortebio Octet, 30°C; FcγRs loaded on NTA sensors at 5 μg/mL (2.5 nm); antibodies in solution, six 2-fold dilutions; 1× PBS, 0.1% BSA, 0.02% Tween 20; steady-state equilibrium analysis"}, "[1]": {"target": "hCD16a (FcγR IIIa) (human) (UniProt P08637)", "sequence (P08637 17-208)": "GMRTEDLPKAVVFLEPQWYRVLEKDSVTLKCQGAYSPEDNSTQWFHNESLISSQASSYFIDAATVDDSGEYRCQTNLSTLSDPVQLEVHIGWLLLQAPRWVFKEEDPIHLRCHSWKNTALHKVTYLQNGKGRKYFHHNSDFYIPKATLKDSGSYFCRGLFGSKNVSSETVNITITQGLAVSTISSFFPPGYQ", "assay": "BLI"}, "[2]": {"target": "hCD32b (FcγR IIb) (human) (UniProt P31994)", "sequence (P31994 43-310)": "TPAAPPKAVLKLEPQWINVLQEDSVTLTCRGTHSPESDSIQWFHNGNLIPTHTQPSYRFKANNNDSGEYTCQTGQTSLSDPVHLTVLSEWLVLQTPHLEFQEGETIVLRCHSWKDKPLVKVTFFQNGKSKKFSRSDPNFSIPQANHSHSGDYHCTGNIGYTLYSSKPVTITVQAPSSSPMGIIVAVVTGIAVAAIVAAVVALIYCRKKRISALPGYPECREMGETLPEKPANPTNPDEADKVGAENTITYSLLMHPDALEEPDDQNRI", "assay": "BLI"}, "[3]": {"target": "hCD16b (FcγR IIIb) (human) (UniProt O75015)", "sequence (O75015 17-200)": "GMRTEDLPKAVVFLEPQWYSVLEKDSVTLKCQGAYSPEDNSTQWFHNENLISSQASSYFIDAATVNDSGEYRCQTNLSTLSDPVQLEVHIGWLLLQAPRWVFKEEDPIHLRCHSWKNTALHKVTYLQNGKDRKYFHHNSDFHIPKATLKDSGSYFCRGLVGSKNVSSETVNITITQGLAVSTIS", "assay": "BLI"}},
  "data": [
    {"substance": "Wild-type huE6F6 (huE6F6-wt) (antibody)", "values": [
      {"measurement": "Kd", "setting": "mCD32b (mouse)", "result": 2800, "unit": "nM"},
      {"measurement": "Kd", "setting": "mCD16-2 (mouse)", "result": 1100, "unit": "nM"}
    ]},
    {"substance": "Wild-type huE6F6 (huE6F6-wt) (from UniProt P01857)", "values": [
      {"measurement": "Kd", "setting": "[1]", "result": 805, "unit": "nM"},
      {"measurement": "Kd", "setting": "[2]", "result": 1100, "unit": "nM"},
      {"measurement": "Kd", "setting": "[3]", "result": 2580, "unit": "nM"}
    ]}
  ]
}
